# Data from patent publication US20230151072A1 (XILIO DEVELOPMENT, published 2023).
# B1: AK168 after protease cleavage (ligand)
# chain: LYHPSGPAPTSSSTKKTQLQLEHLLLDLQMILNGINNYKNPKLTAMLTAKFAMPKKATELKHLQCLEEALKPLEEVLNLAQSKNFHLRPRDLISNINVIVLELKGSETTFMCEYADETATIVEFLNRWITFAQSIISTLT
# notes: also called AK168 Cleavage Product
# Molecular target: T1, CD122-Fc (UniProt P14784 27-240, limits assumed)
# T1 construct: Analyte flowed over the chip in SPR at 500, 250, 125, 62.5 and 31.25 nM; also called Fc-CD122; IL-2Rbeta
# T1 sequence (looked up): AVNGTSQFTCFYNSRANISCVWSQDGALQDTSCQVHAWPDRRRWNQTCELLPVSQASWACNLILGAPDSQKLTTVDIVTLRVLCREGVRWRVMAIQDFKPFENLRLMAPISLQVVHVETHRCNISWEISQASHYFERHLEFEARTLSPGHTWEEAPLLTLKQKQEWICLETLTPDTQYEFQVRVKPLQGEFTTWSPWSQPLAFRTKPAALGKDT
# Test: SPR, protease-cleaved construct amine-coupled on chip, CD122-Fc flowed
# Protocol: For SPR studies testing binding of masked and non-masked IL-2 polypeptide constructs, Reichert Carboxymethyl Dextran Hydrogel Surface Sensor Chips were coated and immobilized with the construct of interest (e.g., a masked IL-2 polypeptide construct or non-masked IL-2 polypeptide construct) at 30 ug/ml in 10 mM Sodium Acetate, pH 5.0 via amine coupling with EDC and NHS. […] Using a Reichert 4Channel SPR, dilutions of CD25 or CD122 were flowed over the clips with the immobilized construct to determine the on rate at 25 degrees C. At equilibrium (approximately 3 minutes), the flow buffer was changed to PBST, to determine the off rates over 6 minutes. Between each run the chip was regenerated with 10 mM glycine, pH 2.0.
# For some structures, when applicable, the KD was determined for the construct with or without having been previously cleaved by a protease.
binder,measurement,value
B1,Kd,175 nM
